# Source: patent US20160289284
# System: ZF6-DBD (AAV8-CMV delivered) (artificial (designed))
# Test: cell_activity
# Conditions: pig retina, rhodopsin transcript by qRT-PCR, 15 days after AAV8 injection
substance,measurement,value
porcine RHO proximal promoter / TSS region,activity,45 % repression
